Test results from the nanobody polyreactivity screen of Harvey et al. (2022).

Experiment: yeast display, Sf9 membrane polyspecificity reagent, FACS + sequencing; frameworks hold sequencing errors
Procedure, shortened: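 A nanobody's polyreactivity label depends on the gate it was sorted from. Yeast display cells were stained with 10% biotinylated, detergent-solubilized Sf9 membrane reagent for 1 hour at 4 °C, enriched on streptavidin microbeads and sorted by FACS. The low and high (top ~1%) gates were set on anti-HA fluorescence for expression and streptavidin fluorescence for reagent binding.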

Row | Sequence | polyreactivity (PSR sort gate)
1 | QVQLVESGGGLVQAVGSLRLSCAASGSIYGYAMGWYIQAPGKERELVAAISGRGGRTYYADSVKGRFTISRDNAKNTVYLQMNSLKPEDTAVYYCNFQWRYPYHYTVDYWGQGTQVTVSS | high polyreactivity
2 | QVQLVESGGGLVQAVGSLRLSCAASVIIFDVNAMGWYRQAPAKERELVATISKRGGTTYYADSVKGRFTISRDNAKNTVYLQMYSLKPEDTAVYYCAARHQTLRSYRYDYWGQGTQVTVSS | low polyreactivity
3 | QVQLVESGGGLVQAVGSLRLSFAASGFTFGRNSLGWYRQAPGKERELVAAMTSRVGSTYYADSVKGRFTISRDKAKNTLYLQMNSLKPEDTAVYYCAAVKGPERPTTPYDYWGQGTQVTVSS | high polyreactivity
4 | QVQLVESGGGLVQAVVSLRLSCAASGRIFAYNAMGWYIQATGKERELVAAISSGGNTYYADSVKGRFTISRDNAKNTVYLQMNSLKPEDTAVYYCNAGVGWHRYYSNYDYWGLGTQVTVSS | low polyreactivity
5 | QVQLVESGGGLVQDGGSLRLSCAASGRIFGYYAMGGYRQAPGKERELVASINGGGSTNYADSVKGRFTISRDNAKTTVYLQMNSLKPEDTAVYDCAAAQWAYWLLYNYWGHGTQVTVSS | low polyreactivity
6 | QVQLVESGGGLVQEGGRLRLSCAASGITFRYYAMGWYRQAPGKERELVAAISWGGGSTYYADSVKGRFTISRDNATNTVYLQMNSLKPEDTAVYYCNARGSVRPYGPRATLDYWGQGTQVTVSS | high polyreactivity
7 | QVQLVESGGGLVQEGGSLRLICAASGSTFYDYAMGWYRQAPGKERELVAAINWSSDTTYYADSVKGRFTISRDNAKNTVYLQMNSMKPEDTAVYYCATDSAYRGYDYWGQGTQVTVSS | low polyreactivity
8 | QVQLVESGGGLVQEGGSLRLRCAASGRIFYNYAMGCYRQAPGKERELVAAITGRGGRTYYADSVKGRFTISRDNAKNTVYLQINSLKPEDTAVYYCSVRAGTAGYPKYDYWGPGTQVTVSS | high polyreactivity
9 | QVQLVESGGGLVQEGGSLRLRCAASGSTFIRYVMGWYRQAPGKERELVAGINSSGGSTNYADSVKGRFTISRDNAKNTVYLQMNSLKPVDTAVYYCNADLRSEYVYWGQGTQVTVSS | low polyreactivity
10 | QVQLVESGGGLVQEGGSLRLSCAASESNFPRNAMGLYRKEPGKEREIVAAISSAGSTYYADSVKWRFTISRDNAKNTVYLQMNSLKQEDTAVYYCAARLYWPLIVVDLYGYDYWGQGNQVTVSS | low polyreactivity
11 | QVQLVESGGGLVQEGGSLRLSCAASGFTFAYYAMGWYRQAPGKERELVASISYNGGITNYADSVKGRFTISRYNAKNTVYLQMNSLKPEDTAVYYCAAGVFFFTFDYWGQGTQVTVSS | low polyreactivity
12 | QVQLVESGGGLVQEGGSLRLSCAASGFTFRQYAMGRSRQAPGKEMELVAAITKTGGSTYYADSVKGRFTISRDHAKNTVYLQMNSLKPEDPAVYYCNAARETRPRDYYWGQGTQVTVSS | low polyreactivity
13 | QVQLVESGGGLVQEGGSLRLSCAASGFTFTSNAMGWYRQAPGKERELVAAITYSGGITYYADSVKGRFTISRDNAKNTVYLQMNSLKPEDTAVYYCAADSTPYVLSGNYDYWGQGTQVTVSS | low polyreactivity
14 | QVQLVESGGGLVQEGGSLRLSCAASGFTVTDYAMGLYRQAPGKERELVAAITSSGGRTYYADSVKGRFTISRDNAKNTVYLQMNSLKPEDTAGYYCTARPHGSWFEYDYWGQGTEVTVSS | high polyreactivity
15 | QVQLVESGGGLVQEGGSLRLSCAASGIIFDGNARGWYRQAPGKEKELVASITSDSSTNYADSVKGRFTISRDNAKNTVYLQMNSLKPEDTAVYYCAAAHWIAPRSDYWGQGTQVTLSS | low polyreactivity
16 | QVQLVESGGGLVQEGGSLRLSCAASGRTFYINGLGWYRQAPGKEREFVASITWRGGRTYYADSVKGRFTISRDNAKNTVYLQMNSLKPEDTAVYYCNAVGLGGRATSRWYTHYYWGQGTQVTVSS | high polyreactivity
17 | QVQLVESGGGLVQEGGSLRLSCAASGRTSNINAMGWYRQAPGKERELVAAINSDGSTYYAYSVKGRFTISRDNAKNTVYLQMNSLKPEDTAVYYCAAVSLFRDSQFDYWGQGTQVTVSS | low polyreactivity
18 | QVQLVESGGGLVQEGGSLRLSCAASGSIFDTYAMGWYRQAPGKERELVAAISSGGRTYYADSVKGRFTISRDNAKNTDYFQMNSLKPEYTAVYYCAKERYQQGNYYRYGYWGQGTQVTVSS | high polyreactivity
19 | QVQLVESGGGLVQEGGSLRLSCAASGSIFDVYAMGWYRQAPGKERELVAAISSSGSTYYADSVKGRFTISRDNAKNTVYLQMNSLKPEDTAVYYCAADQADDDDYYYWGQVTQVTVSS | low polyreactivity
20 | QVQLVESGGGLVQEGGSLRLSCAASGSIFDVYAMGWYRQAPGKERELVAAISSSGSTYYADSVKGRFTISRDNAKNTVYLQMNSLKPEDTAVYYCASDQADDDDYYYWGQGNQVTVSS | low polyreactivity
21 | QVQLVESGGGLVQEGGSLRLSCAASGSIFFPYAMGWYRQAPGKEREFFADITWSGGSTYYADSVKGRFTISRDNAKNTVYLQMNSLKPEDTAVYYCNTDYYLLSVVWFSYTLYEYWGQGTQVTLSS | high polyreactivity
22 | QVQLVESGGGLVQEGGSLRLSCAASGSIFGYYAMGWYRQAPGKERELVAAISRSGGSTYYADSVKGRFTISRDNAKNTVSLQMNSLKPEDTAFYYCAADDYPYGNYYWGKGTQVTVSS | high polyreactivity

Row | Sequence | polyreactivity (PSR sort gate)
23 | QVQLVESGGGLVQEGGSLRLSCAASGSIFPYYAMGWYRQAPGKERELVAAISSAGSTNYADSVKGRFTISRDNAKNTVYLQMNSLKPEDTAVYYCAADLFYREFDYWGQGTQVTVSS | low polyreactivity
24 | QVQLVESGGGLVQEGGSLRLSCAASGSIFSGYAMGWYRPAPGKERELVAAISSSGGSTYYADSVKGRFTISRDNAKNTVYLQMNSLKPEDTAFYYCAADARWLWVYGAYGGLDYWGQGTQVTLSS | low polyreactivity
25 | QVQLVESGGGLVQEGGSLRLSCAASGSILAGYAMGWYRQPPRKERELVDDITSGGDTYYADSVKGRFTISRDNAKNTVYLQMKSLKPEDTAVYYCNAVYEGRYEYAYYYRYDYWGQGTQVTVSS | high polyreactivity
26 | QVQLVESGGGLVQEGGSLRLSCAASGSIYGWDAMGWYRQAPGQEREYVAAIDYSDGGRTYSADSVKGRFTISRDPAKNTVYLQMNSLKPADTAVYYCAAGYVYPHYFIDEYWGQGTQVTVSS | high polyreactivity
27 | QVQLVESGGGLVQEGGSLRLSCAASGSTFERNAMGWYRQAPGKERELVAAISAIGDSTYYADSVKGRFTISRDNAKNTVYLQMKSLNPEDTAVYYCAARYTRYHIGRGYYYWGQGTQVTVSS | high polyreactivity
28 | QVQLVESGGGLVQEGGSLRLSCAASGSTFKYYAMGWYRQAPGKERELVAAISKGATRTYYADSVKGRFTISRDNAKNTVYLQMNSLKPEDTAVYYCAARGRWNVPARRDYWGQGTQVTVSS | high polyreactivity
29 | QVQLVESGGGLVQEGGSLRLSCAASGSTFLKYDMGWYRQAPGNERELVAAISWDGGSTYYADSVKGRFTISRDNAKNTVYLQMNSLKPEDTAVYYCNADYDVYLTICYYYGEFDYWGQGTQVTVSS | low polyreactivity
30 | QVQLVESGGGLVQEGGSLRLSCAASGSTFSSYAMGWYRQAPGKERELVAAISWSGGSTYYADSVKGRFTISRDNAKNTVYLQMISLKPEDTAVYYCAAYTYSFRANHDYWGQGTQVTVSS | high polyreactivity
31 | QVQLVESGGGLVQEGGSLRLSCAASGSTFSWYTMGWYRQAPGKERELVAAITRGGTTYYADSVKGRFTISRDNAKNTVYLQMISLKPEDTAVYYCAARYSRDVRMGYWGQGTQVTVSS | high polyreactivity
32 | QVQLVESGGGLVQEGGSLRLSCAASGTFYDYVMGLYRPAPGKERELVATISDNDGSTYYADSVKGRFTISRDNAKNTVYLQKNSLKPEDTALYYCNAGRTWPIVADYSWLSYGSWGQGTQVTVSS | high polyreactivity
33 | QVQLVESGGGLVQEGGSLRLSCAATGSTFDANAMGWYRQAPGKERELVATISDGGSTNYADSVKGRFTISRDNAKNTVYLQMNSLKPEDTAVYYCAAVKLFLGLGYDYWGQGTQVTVSS | low polyreactivity
34 | QVQLVESGGGLVQEGGSLRLSCAPSGFIFRRNAMGAYRQAPGKERELVAAITKSGGSTYYADSVKGRFTISRDNAKNTVYLQMNSLKPEDTAVYYCAAPTWTRSSFDYWGQGTQVTVSS | high polyreactivity
35 | QVQLVESGGGLVQEGGSLRLSCSDSGRILRRYTMGWYRQAPGKERELVAAISSGGNTYYADSVKGRFTISRDNAKNTVYLQMNSLKPEDTGVDYCAARVRRYWEYDYWGKGTQVTVSS | low polyreactivity
36 | QVQLVESGGGLVQEGGSLRLSWAASGSTFARYAMGWYRQAPGKERELVAAISRRGGSTYYADSVKGRFTISRDKAKNTVYVQMHRLKPEDTGVSYCAARYGIISSFEYDYWGQGTQVTVSS | high polyreactivity
37 | QVQLVESGGGLVQEGGSLSLSCAASGFTFYYYAMGLYRQAPGKERELVASISWRGGSTYYADSVKGRFTISRDNAKNTVYLQMNSLKPEDTAVYYCAAQKRGSPGYRRDYWGQGTQVAVSS | high polyreactivity
38 | QVQLVESGGGLVQEGGSLSLSCAASGITLSLYAMGRYRQAPGKERELVAAISRSGGSTYYAYSVKGRFTISRDNAKNTVYLQMNSLKPVDTAFFYCATSWTPNYFVTSDYWGQGTQVTVSS | high polyreactivity
39 | QVQLVESGGGLVQEGGTLRLSCAASGSISIRNAMGWYRQAPGKERELVAAITYSGGSTYYADSVKGRFTISRDTAKNTVYLQMNSLKPEDTAVYYCAKDHYRFRYDYWGQGTQVTVSS | low polyreactivity
40 | QVQLVESGGGLVQERGSLRLSCAASGSIFFPYAMGWSRQAPGKDRELVAAITRGGNTKYADSVKGRFTISRDNAKNTVYIQMNSLKPEDTAVFYCAARGASIPYGYWGQGTQVTVSS | high polyreactivity
41 | QVQLVESGGGLVQGGGSLRLSCAASGFIFRYYAMGWYRQAPGKERELVAAINGRGDSTYYADSVKGRFTISRDNAKNTVYLQMNSLKPEDTAVYYCAAQGYRYLSRDRYDYWGQGTQVTVSS | high polyreactivity
42 | QVQLVESGGGLVQGGGSLRLSCAASGFIFSRYAMGWYRPAPGKERELVAAISRTGSTNYADSVKGRFTISRDNAKNTVYLQMNSLNPEDTAVYYCNARYITFNGYGYGYWEQGTQVTVSS | high polyreactivity
43 | QVQLVESGGGLVQGGGSLRLSCAASGLIFYHYAMGWYRQAPGKEREFVAAITVSGGSTSYADSVKGRFTISRDNAKNTVDLQMNSLKPEDNAVYYSADRVNYRSPGVSKGRDYWGQGTQVTVSS | low polyreactivity
